Measurements: patent US20120316071A1 (published 2012)
Where a chain is given by its changes, count along the chain named. Names may count otherwise.

B1: Fab VH1-46_IGHD6-6*01_IGHJ1*01 S102A/S103P/S104F/H111F G55A & L6_IGKJ1*01 (Fab, V domains shown)
VH: QVQLVQSGAEVKKPGASVKVSCKASGYTFTSYYMHWVRQAPGQGLEWMGIINPSAGSTSYAQKFQGRVTMTRDTSTSTVYMELSSLRSEDTAVYYCAREEYAPFSAEYFQFWGQGTLVTVSS
VL: not shown
notes: Fab made in E. coli: CH1 with His6/Flag tags from Plasmid A, kappa constant region from Plasmid C; also called APFF G55A
B2: Fab VH1-46_IGHD6-6*01_IGHJ1*01 S102A/S103P/S104F/H111F S57A & L6_IGKJ1*01 (Fab, V domains shown)
VH: B1 VH with A55G, S57A
VL: not shown
notes: Fab made in E. coli: CH1 with His6/Flag tags from Plasmid A, kappa constant region from Plasmid C; also called APFF S57A
B3: Fab VH1-46_IGHD6-6*01_IGHJ1*01 S102A/S103P/S104F/H111F N52A & L6_IGKJ1*01 (Fab, V domains shown)
VH: B1 VH with N52A, A55G
VL: not shown
notes: Fab made in E. coli: CH1 with His6/Flag tags from Plasmid A, kappa constant region from Plasmid C; also called APFF N52A
B4: Fab VH1-46_IGHD6-6*01_IGHJ1*01 S102A/S103P/S104F/H111F I50A & L6_IGKJ1*01 (Fab, V domains shown)
VH: B1 VH with I50A, A55G
VL: not shown
notes: Fab made in E. coli: CH1 with His6/Flag tags from Plasmid A, kappa constant region from Plasmid C; also called APFF I50A
B5: Fab VH1-46_IGHD6-6*01_IGHJ1*01 S102A/S103P/S104F/H111F S54A & L6_IGKJ1*01 (Fab, V domains shown)
VH: B1 VH with S54A, A55G
VL: not shown
notes: Fab made in E. coli: CH1 with His6/Flag tags from Plasmid A, kappa constant region from Plasmid C; also called APFF S54A
B6: Fab VH1-46_IGHD6-6*01_IGHJ1*01 S102A/S103P/S104F/H111F I51A & L6_IGKJ1*01 (Fab, V domains shown)
VH: B1 VH with I51A, A55G
VL: not shown
notes: Fab made in E. coli: CH1 with His6/Flag tags from Plasmid A, kappa constant region from Plasmid C; also called APFF I51A
B7: Fab VH1-46_IGHD6-6*01_IGHJ1*01 S102A/S103P/S104F/H111F T58A & L6_IGKJ1*01 (Fab, V domains shown)
VH: B1 VH with A55G, T58A
VL: not shown
notes: Fab made in E. coli: CH1 with His6/Flag tags from Plasmid A, kappa constant region from Plasmid C; also called APFF T58A
B8: Fab VH1-46_IGHD6-6*01_IGHJ1*01 S102A/S103P/S104F/H111F S59A & L6_IGKJ1*01 (Fab, V domains shown)
VH: B1 VH with A55G, S59A
VL: not shown
notes: Fab made in E. coli: CH1 with His6/Flag tags from Plasmid A, kappa constant region from Plasmid C; also called APFF S59A
B9: Fab VH1-46_IGHD6-6*01_IGHJ1*01 S102A/S103P/S104F/H111F G56A & L6_IGKJ1*01 (Fab, V domains shown)
VH: B1 VH with A55G, G56A
VL: not shown
notes: Fab made in E. coli: CH1 with His6/Flag tags from Plasmid A, kappa constant region from Plasmid C; also called APFF G56A
B10: Fab VH1-46_IGHD6-6*01_IGHJ1*01 S102A/S103P/S104F/H111F P53A & L6_IGKJ1*01 (Fab, V domains shown)
VH: B1 VH with P53A, A55G
VL: not shown
notes: Fab made in E. coli: CH1 with His6/Flag tags from Plasmid A, kappa constant region from Plasmid C; also called APFF P53A
B11: Fab VH1-46_IGHD6-6*01_IGHJ1*01 S102A/S103P/S104F/H111F S54T & L6_IGKJ1*01 (Fab, V domains shown)
VH: B1 VH with S54T, A55G
VL: not shown
notes: Fab made in E. coli; CH1 with tags and kappa CL are not included; also called APFF S54T
B12: Fab VH1-46_IGHD6-6*01_IGHJ1*01 S102A/S103P/S104F/H111F S54P & L6_IGKJ1*01 (Fab, V domains shown)
VH: B1 VH with S54P, A55G
VL: not shown
notes: Fab made in E. coli; CH1 with tags and kappa CL are not included; also called APFF S54P
B13: Fab VH1-46_IGHD6-6*01_IGHJ1*01 S102A/S103P/S104F/H111F S54R & L6_IGKJ1*01 (Fab, V domains shown)
VH: B1 VH with S54R, A55G
VL: not shown
notes: Fab made in E. coli; CH1 with tags and kappa CL are not included; also called APFF S54R
B14: Fab VH1-46_IGHD6-6*01_IGHJ1*01 S102A/S103P/S104F/H111F S54N & L6_IGKJ1*01 (Fab, V domains shown)
VH: B1 VH with S54N, A55G
VL: not shown
notes: Fab made in E. coli; CH1 with tags and kappa CL are not included; also called APFF S54N

biological target: T1, Recombinant Human DLL4 (delta-like protein 4) (human, UniProt Q9NR61 27-524); assay: ECL (MSD) multispot binding assay, DLL4 immobilised, 10 nM Fab, DLL4 signal over blank
T1 construct: Bought recombinant protein (R&D Systems Cat#1506-D4/CF); also called rHuman DLL4; Delta-like 4

First: B1
Second: B2
The “Signal/Noise [10 nM Fab]” value of the first is lower: 44.2 for the first, 293 for the second.

Compared with B3, B4 is lower in “Signal/Noise [10 nM Fab]” value: 721 for the first, 9.8 for the second.

Going from B5 to B6, the “Signal/Noise [10 nM Fab]” value rises from 122 to 637.

Compared with B7, B8 is lower in “Signal/Noise [10 nM Fab]” value: 142 for the first, 17.1 for the second.

Compared with B9, B10 is higher in “Signal/Noise [10 nM Fab]” value: 442 for the first, 462 for the second.

biological target: T2, Recombinant Human DLL4 (delta-like protein 4) (human, UniProt Q9NR61 27-529); assay: 96-well plate ECL (MSD) binding assay on coated DLL4, 10 nM Fab
T2 construct: Bought recombinant human DLL4 (R&D Systems Cat#1506-D4/CF), coated on the plate; also called rHuman DLL4; Delta-like 4

First: B11
Second: B12
The “ECL signal” value of the first is higher: 57200 for the first, 10100 for the second.

Compared with B13, B14 is higher in “ECL signal” value: 26300 for the first, 31700 for the second.

biological target: T1, Recombinant Human DLL4 (delta-like …); assay: ELISA on plate-coated DLL4, 100 nM Fab, signal minus noise

Going from B1 to B2, the “ELISA (Signal-Noise)” value rises from 0.02 to 0.39.

Compared with B3, B4 is lower in “ELISA (Signal-Noise)” value: 0.6 for the first, 0.01 for the second.

Compared with B5, B6 is higher in “ELISA (Signal-Noise)” value: 0.255 for the first, 0.49 for the second.

Going from B7 to B8, the “ELISA (Signal-Noise)” value falls from 0.14 to 0.02.

Compared with B9, B10 is lower in “ELISA (Signal-Noise)” value: 1.6 for the first, 0.41 for the second.

biological target: T2, Recombinant Human DLL4 (delta-like …); assay: ELISA on coated DLL4, 100 nM Fab

Compared with B11, B12 is lower in “ELISA signal” value: 0.08 for the first, 0 for the second.

B13 and B14 are the same in “ELISA signal” value: 0.02 for the first, 0.02 for the second.
